The test system of experiment [1] is FLAG-HA-Emerald GFP tagged with C-terminal G196-tag (FHG-G196). Briefly: Western blot analysis of HeLa cell extracts. The class given is cell-based, human. From the text:
(§1) Short peptides and paired mAbs specific for the sequences of interest are powerful and irreplaceable tools for scientific research. To ascertain the possible versatility of G196-tag as a versatile fusion tag, we generated several human and yeast expression constructs in which the G196-tag was fused to reporter proteins. First, we expressed FLAG- and HA-tagged Emerald GFP (hereafter abbreviated FHG) as a reporter protein, C-terminally fused with a G196-tag (6P12, SDLVPRGSP) in HeLa cells.
(§2) Figure 5 Application of the G196 epitope tag system for scientific research. (a) Western blot and immunoprecipitation (IP) analysis of FLAG-HA-Emerald GFP (FHG) tagged with C-terminal G196-tag in HeLa cells using mAb G196. HeLa cells were transfected with FHG/pcDNA3 or FHG-G196/pcDNA3. After incubation for two days, the cells were lysed and subjected to Western blotting with anti-FLAG (M2) or G196 mAbs (left panel). These lysates were immunoprecipitated with anti-FLAG (M2) (lanes 7, 8) or G196 (lanes 9, 10) mAbs and subjected to Western blotting with anti-FLAG polyclonal antibody (right panel). (b) Immunofluorescence of GFP- and G196-tagged nuclear protein in HeLa cells using mAb G196. […] Protein extracts were separated by SDS-PAGE and detected with mAb G196 and anti-GFP polyclonal antibody (left panel). […] Asterisk indicates non-specific band also detected using the second Ab alone. […]
Background: In western blotting, separated proteins are transferred to a membrane and probed.

For experiment [2], the system named is cellular proteins of HeLa cells. In words: Western blot cross-reaction with cellular proteins. Conditions: HeLa cell extracts, Western blot (lanes 3, 4). The class given is cell-based, human.
From the text: as §1, §2

Experiment [3] concerns Atf1-G196-GFP at the tdh1 promoter. In words: chromatin immunoprecipitation (ChIP) in fission yeast. The format is cell-based. Conditions: promoter of tdh1 gene (CRE consensus site); 3 μL mAb G196; qPCR. The protocol:
Yeast cells were grown in YES medium at 30 °C to mid-log phase. After formaldehyde crosslinking and quenching, 1 × 10^8 cells were harvested to obtain 2 mL of soluble input extract. M-280 anti-mouse sheep antibody-conjugated magnetic beads (112-02, ThermoFisher Scientific) were used for immunoprecipitation: 200 μL of the beads were washed twice with extraction buffer (50 mM HEPES-KOH (pH 7.5), 140 mM NaCl, 1 mM EDTA, 1% Triton X-100, and 0.1% sodium deoxycholate), and then incubated in 1 mL of extraction buffer containing 3 μL of mAb G196 for 1 h at 4 °C. The beads were again washed twice with extraction buffer to remove unbound antibodies and incubated for 1 h with 800 μL of input extract at 4 °C. The relative concentrations of the target sequences were determined using SYBR Premix ExTaq (RR041A, TaKaRa Bio, Shiga, Japan) and a Thermal Cycler Dice Real Time System TP800 (TaKaRa Bio), according to the manufacturer’s instructions. The primers for detecting the −1 kb region were 5′-[…]-3′ and 5′-[…]-3′, and for the tdh1 CRE region the primers were 5′-[…]-3′ and 5′-[…]-3′.

A further experiment relates to Atf1-G196-GFP. Briefly: immunofluorescence of fission yeast cells. The format is cell-based. The protocol: Yeast cells exponentially growing in YES medium at 30 °C were fixed with 3% formaldehyde and incubated at 18 °C for 30 min. After quenching with 250 mM glycine, the cells were washed with PBSEMS (PBS buffer with 1 mM EGTA, 1 mM MgSO4 and 1.2 M sorbitol), resuspended in PBSEMS containing 5 mg/mL Zymolyase 20T (07663-91, Nacalai Tesque) and 0.1% 2-mercaptoethanol, and incubated at 37 °C for 1 h. The cells were washed three times with PBSEMS and resuspended in PBSEMT (PBS with 1 mM EGTA, 1 mM MgSO4 and 1% Triton X-100) and incubated at room temperature for 30 sec. After washing three times with PBSEM (PBS with 1 mM EGTA and 1 mM MgSO4), the cells were incubated in PBSEMALM (PBS with 1 mM EGTA, 1 mM MgSO4, 0.1% sodium azide, 0.1 M L-lysine and 5% skim milk) for 30 min. The cells were resuspended in PBSEMALM containing G196 mAb (1:1000) and anti-GFP rabbit polyclonal antibody (1:1000). After overnight incubation at room temperature, cells were washed with PBSEMALM three times, then resuspended in PBSEMALM containing anti-mouse antibody conjugated with Alexa 594 (1:100) and anti-rabbit conjugated with Alexa 488 (1:100). After one-hour incubation, the cells were washed with PBSEMAL containing 5% skim milk three times and resuspended in PBS containing 0.1% sodium azide. The cell suspension was mixed with an equal amount of 1% low-melting point agarose with DAPI on glass plates.

The test system of experiment [4] is N- and C-terminally G196-tagged protein. In words: detection of N- and C-terminally G196-tagged protein. To be noted: this study and refs. 22 and 23.

Entries after “also recorded” stand apart in the source; their conditions may differ.

B1: mAb G196: mouse mAb (IgG1) raised against GST protein bacterially expressed using the pGEX-2T vector (antibody, V domains shown)
VH: QVKLQESGAELVKPGASVKLSCKASGYTFTNYWMHWVKLRPGQGFEWIGEINPSNGGSNYNEKFKRKATLTVDKSSSTAYMQLSSLTSEDSAVFYCSIWDSYFDYWGQGTTLTVSS
VL: NIVMTQSPKSMSMSVGERVTLTCKASENVVTYVSWYQQKPEQSPKLLIYGASNRYTGVPDRFTGSGSATDFTLTISSVQAEDLADYHCGQGYSYPYTFGGGTKLEIK
B1: the “detection of FHG (without G196-tag) by Western blot” value in experiment [1] (HeLa cells transfected with FHG (lane 3)) was “not detected”. Also, in experiment [1] (HeLa cells transfected with FHG-G196, two days (lanes 2, 4)), the “detection of FHG-G196 by Western blot” value is “detected as a single band; also recorded: as a single band at the proper molecular weight”. In addition, the “cross-reaction with cellular proteins” value in experiment [2] is reported as “did not cross-react with cellular proteins; also recorded: did not (cross-)react with cellular proteins”. Also, the “ChIP of Atf1” value in experiment [3] was “enriched the Atf1 protein at the promoter of the tdh1 gene”. Also, the “immunofluorescence recognition of Atf1” value in the experiment with Atf1-G196-GFP (G196- and GFP-tagged Atf1, mAb 1:1000) is “recognized G196- and GFP-tagged Atf1”. Further, the “immunofluorescence of Atf1 compared with anti-GFP polyclonal” value in the experiment with Atf1-G196-GFP (versus polyclonal anti-GFP antibody) was “comparable to that of a polyclonal anti-GFP antibody”. In addition, the “detection of N- and C-terminally tagged protein” value in experiment [4] was “detected both N- and C-terminally G196-tagged protein”.

The values above are taken from paper PMC5339894, “G196 epitope tag system: a novel monoclonal antibody, G196, recognizes the small, soluble peptide DLVPR with high affinity” (Scientific Reports, 2017).
